Positions count from the first letter of the chain named.
B1: FL-26 scFv (scFv)
scFv: QVTLKESGPVLVKPTETLTLTCTVSGFSFRNARMGVSWIRQPPGKALEWLAHIFSNDEKSYSTSLKSRLTISKDTSKSQVVLTLTNMDPVDTATYFCARMPEYSSGWSGAFDIWGQGTMVTVSSGGGGSGGGGSGGGGSDIQMTQSPSSLSASVGDRVTITCRASQGIRNDLVWYQQKPGKAPKRLIYGTSTLQSGVPSRFSGSGSGTEFTLTISSLQPEDFATYYCLQHNSYPLTFGGGTKVEIK
notes: periplasmic prep
B2: FL-22 scFv (scFv)
scFv: B1 scFv with R169S, D171Y, V173A, G189A, T190A, S232T, L235W, G239Q
notes: periplasmic prep
B3: FL-10 scFv (scFv)
scFv: B1 scFv with G167D, N170D, V173G, K181N, T190A, E244D
notes: periplasmic prep
B4: FL-23 scFv (scFv)
scFv: QVTLKESGPALVKPTETLTLTCTVSGFSFRNARMGVSWIRQPPGKALEWLAHIFSNDEKSYSTSLKSRLTISKDTSKSQVVLTLTNMDPVDTATYFCARMPEYSSGWSGAFDIWGQGTMVTVSSGGGGSGGGGSGGGGSDIQMTQSPSSLSASVGDRVTITCRASQDIGYDLGWYQQKPGKAPKRLIYAASTLQSGVPSRFSGSGSGTEFTLIISSLQPEDFATYYCLQHNSFPWTFGQGTKVEIK
notes: periplasmic prep
B5: FL-43 scFv (scFv)
scFv: B1 scFv with A46C, G239C
notes: periplasmic prep
B6: FL-38 scFv (scFv)
scFv: B1 scFv with M119L, V173G, G189A, T190A, T192S, V243L
notes: periplasmic prep
B7: FL-44 scFv (scFv)
scFv: B1 scFv with A46C, A164T, G189A, T190A, Y226F, N231Y, G239C
notes: periplasmic prep
B8: FL-25 scFv (scFv)
scFv: B4 scFv with G169R, Y170D, S202T, S204G, I213T, W235F, Q239G
notes: periplasmic prep
B9: FL-28 scFv (scFv)
scFv: B1 scFv with R169G, N170D, V173G, K178I, G189A, T192V
notes: periplasmic prep
B10: FL-36 scFv (scFv)
scFv: B1 scFv with V10T, V24F, F29L, N31Y, G167D, V173A, G189A, T190A, T192S, V243L
notes: periplasmic prep
B11: FL-27 scFv (scFv)
scFv: B1 scFv with A164T, G189A, T190A, Y226F, N231Y
notes: periplasmic prep
B12: FL-59 scFv (scFv)
scFv: B1 scFv with V10M, F29L, A32V, G167D, N170D, V173G, K181N, T190A, K242R, V243L
notes: periplasmic prep
B13: FL-37 scFv (scFv)
scFv: QVTLKESGPVLVKPTETLTLTCTVSGFSLRNIKMGVSWIRQPPGKALEWLAHIFSNDEKSYSTSLKSRLTISKDTSKSQVVLTLTNMDPVDTATYFCARMPEYSSGWSGAFDIWGQGTMVTVSSGGGGSGGGGSGGGGSDIQMTQSPSSLSASVGDRVTITCRASQDISNYLAWYQQKPGKAPKRLIYAASSLQSGVPSRFSGSGSGTEFTLTISSLQPEDFATYYCLQHNSFPLTFGGGTKLEIK
notes: periplasmic prep
B14: FL-52 scFv (scFv)
scFv: B13 scFv with V10T, V24F, N31Y, I32A, K33R, A46C, S169R, Y171D, F233Y, G239C
notes: periplasmic prep
B15: FL-24 scFv (scFv)
scFv: B4 scFv with F29L, A32V, T83I, G169R, Y170D, G173V, I213T, N231H, F233Y
notes: periplasmic prep
B16: FL-14 scFv (scFv)
scFv: QVTLKESGPALVKPTETLTLTCTLSGFSLNNARMAVSWIRQPPGKTLEWLAHIFSNDEKSYSTSLKSRLTISKDTSKGQVVLTMTNMDPVDTATYYCARIVGYGSGWYGYFDYWGQGTLVTVSSGGGGSGGGGSGGGGSDIQMTQSPSSLSASVGDRVTITCRASQDIRNDLGWYQQKPGKAPKRLIYAASTLQSGVPSRFSGSGSGTEFTLTISSLQPEDFATYYCLQHNSYPLTFGGGTKVEIK
notes: periplasmic prep
B17: FL-12 scFv (scFv)
scFv: QVTLKESGPALVKPTETLTLTCTVSGFSLSNARMGVSWIRQPPGKALEWLANIFSNDEKSYSTSLKSRLTISKGTSKSQVVLTMTNMDPEDTATYYCARIVGYGSGWYGYFDYWGQGTLVTVSSGGGGSGGGGSGGGGSDIQMTQSPSSLSASVGDRVTITCRASQGIRNDLGWYQQKPGKAPQRLIYAASSLQSGVPSRFSGSGSGTEFTLTISSLQPEDFATYYCLQHNSYPLTFGGGTKVEIK
notes: periplasmic prep
B18: FL-33 scFv (scFv)
scFv: QVTLKESGPVLVKPTETLTLTCTVSGFSLRNARMGVSWIRQPPGKTLEWLAHIFSNDEKSYSTSLKSRLTISKDTSKGQVVLTMTNMDPVDTATYYCARIVGYGSGWYGYFDYWGQGTLVTVSSGGGGSGGGGSGGGGSDIQMTQSPSSLSASVGDRVTITCRASQGIGDDLGWYQQIPGKAPKRLIYATSVLQSGVPSRFSGSGSGTEFTLTISSLQPEDFATYYCLQHNSYPLTFGGGTKLEIK
notes: periplasmic prep
B19: FL-16 scFv (scFv)
scFv: B16 scFv with A10V, L24V, N30R, G78S, L150V, N170Y, G173A, T192S, S232F
notes: periplasmic prep
B20: FL-11 scFv (scFv)
scFv: B16 scFv with A10V, R33K, A35G, T46A, H52Q, D57G, A98S, D167G, A189G
notes: periplasmic prep
B21: FL-13 scFv (scFv)
scFv: B16 scFv with A10T, A35G, T46A, S67N, T75S, G78T, M87V, Y110F, D167G
notes: periplasmic prep
B22: FL-20 scFv (scFv)
scFv: B16 scFv with G78S, V90E, S105T, Y110F, T118I, D167G, G173A, T192S
notes: periplasmic prep
B23: FL-32 scFv (scFv)
scFv: QVTLKESGPTLVKPTETLTLTCTVSGFSFRNARMGVSWIRQPPGKALEWLAHIFSNDEKSYSTSLKSRLTISKDTSKGQVVLTMTNMDPVDTATYYCARIVGYGSGWYGYFDYWGQGTLVTVSSGGGGSGGGGSGGGGSDIQMTQSPSSLSASVGDRVTITCRASQGIRNDLVWYQQKPGKAPKRLIYAASTLQSGVPSRFSGSGSGTEFILTISSLQPEDFATYFCLQHYSYPLTFGGGTKLEIK
notes: periplasmic prep
B24: FL-15 scFv (scFv)
scFv: B16 scFv with R169G, T192S
notes: periplasmic prep
B25: FL-6 scFv (scFv)
scFv: QVTLKESGPTLVKPTETLTLTCTLSGFSLNNARMAVSWIRQPPGKTLEWLAHIFSNDEKSYSPSLKSRLTISKDTSKSQVVLTMTNMDPEDTATYYCARIVGYGTGWYGFFDYWGQGILVTVSSGGGGSGGGGSGGGGSDIQMTQSPSSLSASVGDRVTITCRASQGIRNDLGWFQQKPGKAPKRLIYAASVLQSGVPSRFSGSGSGTEFTLTISSLQPEDFATYYCLQHNSYPLTFGGGTKVDIK
notes: periplasmic prep
B26: FL-29 scFv (scFv)
scFv: B17 scFv with E16Q, V24F, N52H, S62R, G74D, E90V, G109A, Q184K
notes: periplasmic prep
B27: FL-4 scFv (scFv)
scFv: B16 scFv with R33K, A35G, T46A, N170D, K181N, A189G, E244D
notes: periplasmic prep

biological target: T1, human FLT3 (human, UniProt P36888 27-993); experiment: FACS, scFv on CHO-human FLT3 pre-incubated with FLT3 ligand (competitor)
T1 construct: On transfected CHO cells, or on the FLT3 positive human AML cell lines EOL-1 / MV4-11 where the row says so; also called hu FLT3; full length human FLT3
Description: The detection was performed using mouse anti-FLAG+PE-conjugated goat anti-mouse and the Fluorescence median detected by FACS (median (+ligand)/median (w/o ligand)*100%)
Afterwards cells were not washed but directly stained with FLT3 binder (scFv's). […] As negative control, cells were incubated with an unspecific scFv instead of FLT3 scFv.
For the evaluation of the data, the fluorescence median was detected by FACS.

Row | median [+ligand]/median [w/o ligand]*100 | Binder
1 | ≥ 75% | B1
2 | ≥ 75% | B2
3 | ≥ 75% | B3
4 | ≥ 75% | B4
5 | ≥ 75% | B5
6 | ≥ 75% | B6
7 | ≥ 75% | B7
8 | ≥ 75% | B8
9 | ≥ 75% | B9
10 | ≥ 75% | B10
11 | ≥ 75% | B11
12 | ≥ 75% | B12
13 | ≥ 75% | B13
14 | ≥ 75% | B14
15 | ≥ 75% | B15
16 | ≥ 75% | B16
17 | ≥ 75% | B17
18 | ≥ 75% | B18
19 | ≥ 75% | B19
20 | ≥ 75% | B20
21 | ≥ 75% | B21
22 | ≥ 75% | B22
23 | ≥ 75% | B23
24 | ≥ 75% | B24
25 | ≥ 75% | B25
26 | ≥ 75% | B26
27 | ≥ 75% | B27

Source: patent US20170037149A1 (Amgen, published 2017)
